The results in this text go back to PMC9207482.

Experiment [1] has as its target SlPYL1 E151D (tomato (Solanum lycopersicum)). The experiment can be described thus: SEC; Superdex 30 Increase 3.2/300 column as printed; 50 ul with 60, 6 or 0.6 ug protein (48 to 0.48 uM injected); 30 mM Tris-HCl pH 7.5, 150 mM NaCl, 1 mM DTT; apo form, no ABA; refractive index detection. A general note: SEC sorts molecules by how far they enter the pores of the column.

Experiment [2] has as its target SlPYL1 wild type (tomato dimeric abscisic acid receptor PYL1) (tomato (Solanum lycopersicum)). The experiment is described as above.

For SlPYL1 E151D (receptor), in experiment [1], the stoichiometry N was determined as 2.

In turn, “SlPYL1 wild type (tomato dimeric abscisic acid receptor PYL1)” had a stoichiometry N in experiment [2] of 2.

In general, stoichiometry N refers to the number of molecules, sites or subunits per partner or assembly.
